In patent US20240409645A1 (DUALYX, published 2024):

T1: human IL-2Rβ (human, UniProt P14784 27-240, limits assumed)
T1 construct: recombinant protein, coated or immobilised; also called hu IL-2R; IL-2R beta
T1 sequence: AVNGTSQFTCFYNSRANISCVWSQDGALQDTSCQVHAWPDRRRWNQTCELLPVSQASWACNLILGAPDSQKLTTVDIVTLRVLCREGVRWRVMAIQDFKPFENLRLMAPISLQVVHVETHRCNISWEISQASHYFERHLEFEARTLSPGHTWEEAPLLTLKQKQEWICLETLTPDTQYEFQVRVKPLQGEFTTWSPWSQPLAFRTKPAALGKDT

T2: human IL-2Rβ (human, UniProt P14784 27-240, limits assumed)
T2 construct: Recombinant protein, coated (ELISA) or immobilised on CM5 (SPR); also called hu IL-2R; interleukin 2 receptor β-chain
T2 sequence: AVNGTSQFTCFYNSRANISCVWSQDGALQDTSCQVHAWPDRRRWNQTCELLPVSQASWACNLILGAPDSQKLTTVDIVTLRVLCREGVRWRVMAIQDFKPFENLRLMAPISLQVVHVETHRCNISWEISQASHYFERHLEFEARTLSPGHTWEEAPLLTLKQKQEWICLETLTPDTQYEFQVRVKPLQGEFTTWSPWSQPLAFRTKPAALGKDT


What was measured:
[1] = biological target: T1, human IL-2Rβ; assay: SPR, P.E. off-rate
How it was run: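 Dissociation rates of nanobody (VHH) periplasmic extracts were measured across a 120s window on an amine-coupled carboxymethyl dextran surface bearing about 2500 RUs of receptor; injection flow 30 uL/min.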

[2] = biological target: T1, human IL-2Rβ; assay: P.E. ELISA, coated protein
How it was run: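 Read-out: OD at 450 nm, specificity called versus negative controls. Receptor chains (human or mouse IL-2Rα, β, γ) were coated directly overnight at 4° C; 4% Marvel/PBS block 1 h; P.E. at 1:5 dilution in 1% Marvel/PBS incubated 1 h.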

[3] = biological target: T2, human IL-2Rβ; assay: SPR (Biacore), P.E. off-rate ranking
[4] = biological target: T2, human IL-2Rβ; assay: P.E. binding ELISA on coated protein
Method: In a binding ELISA, human or mouse IL-2Rα, IL-2Rβ and IL-2Rγ proteins were coated directly on maxisorp microtiter plates overnight at 4° C. Free binding sites were blocked using 4% Marvel in PBS for 1 hour. Next, 1:5 dilution of P.E. in 1% Marvel/PBS were added to wells and incubated for 1 hour. […] Binding specificity was determined based on O.D. at 450 nm values compared to negative controls.

Row | Binder | koff [1] | P.E. binding ELISA OD [2] | koff [3] | P.E. binding ELISA OD [4]
1 | FJ1427 P035MP02B12 (VHH, soluble VHH in periplasmic extract; also called clone nr) VHH: QVQLVESGGGLVQAGGSLRLSCAASGRADSNAIMAWFRQAPGKEREFIVAVTYSGMPTYQDDSVQGRFTASRDNAKNTVYLQMNSLKPEDTAVYYCAARMYSASTYYGDYDYWGQGTQVTVSS | – | – | 0.000716 s⁻¹ | 1.25 OD450 nm
2 | FJ1427_P035MP02H08 (VHH, soluble VHH in periplasmic extract; also called clone nr; 160) VHH: EVQLVESGGGLVQAGDSLRISCAASGRIFSNYAMGWFRQAPGKETEFVAGITHLTSTTHYADSVKGRFTISRDNAKNTMHLQMNNLKPEDTALYYCAADRNIKITADWSYWGQGTQVTVAS | 0.000731 s⁻¹ | 0.885 OD450 nm | – | –
3 | FJ1427 P035MP02D11 (VHH, soluble VHH in periplasmic extract; also called clone nr; 180) VHH: QVQLQESGGGLVQAGDSLRISCAASGRIFSNYAMGWFRQAPGKETEFVAGITHLTSTTHYADSVKGRFTISRDNAKNTMHLQMNNLKPEDTALYYCAADRNIKITADWSYWGQGTQVTVAS | 0.000833 s⁻¹ | 0.463 OD450 nm | – | –
4 | FJ1427_P035MP02C12 (VHH, soluble VHH in periplasmic extract; also called clone nr) VHH: EVQLVESGGGSVQAGGSLRLSCAASGRTFSDYTMGWFRQAPGKEREFVVAITGTGHTTDMPDSVEGRFTISRDNAKNTIYLDMKNLKPGDTAVYYCASARGLPVTPLGDIIYWGEGTLVTVSS | – | – | 0.00106 s⁻¹ | 0.616 OD450 nm
5 | FJ1427_P035MP02H01 (VHH, soluble VHH in periplasmic extract; also called clone nr) VHH: QVQLVESGGGLVQPGGSLGLSCAASGFTFDNYAMSWVRQAPGKGLEWVSSITGAGRGTHYADSVKGRFTISRDNAKNTLYLQMNSLKPEDTAVYYCAKYSSSTYYPPTPARGTDYRGPGTQVTVSS | 0.00106 s⁻¹ | 0.487 OD450 nm | – | –
6 | FJ1427 P035MP02A12 (VHH, soluble VHH in periplasmic extract; also called clone nr) VHH: QVQLQESGGGLVQAGGSLRLSCAVSGRSFRNYVMGWFRQAPGREREIVAGITQFTSTTYYDDSVKGRFTISRDNAKNTVYLQMNSLKPEDTALYYCAADRSIKMTADWAYWGQGTQVTVSS | – | – | 0.00451 s⁻¹ | 0.182 OD450 nm
7 | FJ1427_P035MP03F12 (VHH, soluble VHH in periplasmic extract; also called 22-MP03F12; clone nr) VHH: EVQLVESGGGLVQAGGSLRLSCAASGSIFSINAMAWFRQVPGMERELVAAISRDGGASVYRDSVKGRFTISRDNSKNTVYLQMNTLKPEDTAIYVCAATRAIGWTARWITTDFDFWGQGTQVTVSS | 0.000419 s⁻¹ | 0.781 OD450 nm | – | –
8 | FJ1427 P035MP02D10 (VHH, soluble VHH in periplasmic extract; also called clone nr) VHH: EVQLVESGGGLVQAGGSLRLSCAASGRTFSSDAKAWFRQAPGKEREFVAAITWAGRGTDYADSVKDRFTITRDNAKNMVYLQMSSLKPEDTAVYYCALNPTGVIGPGFRNSNRYDYWGQGTQVTVAS | 0.00109 s⁻¹ | 0.557 OD450 nm | – | –

Next, values leading:

Row | koff [1] | P.E. binding ELISA OD [2] | koff [3] | P.E. binding ELISA OD [4] | Binder
9 | 0.000529 s⁻¹ | 0.831 OD450 nm | – | – | FJ1427 P035MP02D02 (VHH, soluble VHH in periplasmic extract; also called clone nr) VHH: QVQLVESGGGLVQVGGSLSVSCAASGRSFDSITMAYFRQAPGNEREFIAGINFSGSRTAYGDSVKGRFTISRDNAKNTVFLQMNSLNPEDTAVYYCAASPRGFYGPGHALYDYWGQGTQVTVSS
10 | 0.000594 s⁻¹ | 0.405 OD450 nm | – | – | FJ1427_P035MP03C03 (VHH, soluble VHH in periplasmic extract; also called 18-MP03C03; clone nr) VHH: QVQLVESGGGLVQPGGSLRLSCAISGGTLDSYGIGWVRQAPGKQREGVSCMSRSDDRTYYADSVKGRFTISKDSAKNTVYLQMTSLKPEDTAVYYCAAVDAYGCSLVQPTTYDFWGLGTQVTVSS
11 | 0.00188 s⁻¹ | 0.529 OD450 nm | – | – | FJ1427 P035MP02E11 (VHH, soluble VHH in periplasmic extract; also called clone nr) VHH: QVQLQESGGGLVQAGGSLRLSCAASGRTFSNYVMAWFRQAPGKEREFVGAITQTGRGTFYADSVEGRFTISRINDKNTVYLQMNSLKPEDTAVYYCSAPRSGRAGTRNQMDYEYWGQGTQVTVSS
12 | 0.000471 s⁻¹ | 0.355 OD450 nm | – | – | FJ1427 P035MP06E05 (VHH, soluble VHH in periplasmic extract; also called 24-MP06E05; clone nr; 517) VHH: QVQLVESGGELVQGGASLRLSCAASGRTFSNANMAWFRQAPEKEREFVALITWSSGSTLYADSVKGRFTISRDNARKMVYLQMNSLKPEDTAVYYCAADGPPYSGTYYRYDTYDYWGQGTQVTVSS
13 | – | – | 0.00144 s⁻¹ | 0.658 OD450 nm | FJ1427_P035MP02D12 (VHH, soluble VHH in periplasmic extract; also called clone nr) VHH: QVQLVESGGGLVQAGGSLTLSCAASGGAFSSDAKAWFRQAPGKEREFVAAITWAGRGTDYADSVKGRFTITRDNAKATVHLQMNSLKPEDTAVYYCALNPRGVIGPAFRNSNHYTYWGQGTQVTVSS
14 | 0.000848 s⁻¹ | 1.21 OD450 nm | – | – | FJ1427_P035MP02C09 (VHH, soluble VHH in periplasmic extract; also called 17-MP02C09; clone nr) VHH: QVQLQESGGGLVQAGGSLRLSCVASGSVSSINGMAWYRQGADNQRVLVAAISRVGNTAYGDSVKGRFTISRQNARNTVYLQMNSLKPEDTAVYYCNADSWGGDDYWGQGTQVTVSS
